Tests used:
[1] = molecular target: T1, Mouse GFRAL (mGFRAL) on HEK293 reporter cells with mouse RET (mouse, UniProt Q6SJE0 20-393); test: cell-based or functional assay
T1 sequence (looked up): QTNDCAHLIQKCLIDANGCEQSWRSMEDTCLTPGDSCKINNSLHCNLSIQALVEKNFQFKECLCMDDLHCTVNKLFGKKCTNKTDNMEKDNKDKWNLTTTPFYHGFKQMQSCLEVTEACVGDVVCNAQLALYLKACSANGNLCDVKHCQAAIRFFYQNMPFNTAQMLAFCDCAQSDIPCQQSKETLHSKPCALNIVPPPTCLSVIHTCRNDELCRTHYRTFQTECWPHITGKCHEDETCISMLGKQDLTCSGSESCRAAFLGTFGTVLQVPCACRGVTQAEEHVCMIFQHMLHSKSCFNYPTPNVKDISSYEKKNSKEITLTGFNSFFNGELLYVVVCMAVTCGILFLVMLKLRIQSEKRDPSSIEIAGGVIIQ

[2] = molecular target: T2, Human GFRAL (hGFRAL) on HEK293 reporter cells with human RET (human, UniProt Q6UXV0 19-394); test: cell-based or functional assay
T2 sequence (looked up): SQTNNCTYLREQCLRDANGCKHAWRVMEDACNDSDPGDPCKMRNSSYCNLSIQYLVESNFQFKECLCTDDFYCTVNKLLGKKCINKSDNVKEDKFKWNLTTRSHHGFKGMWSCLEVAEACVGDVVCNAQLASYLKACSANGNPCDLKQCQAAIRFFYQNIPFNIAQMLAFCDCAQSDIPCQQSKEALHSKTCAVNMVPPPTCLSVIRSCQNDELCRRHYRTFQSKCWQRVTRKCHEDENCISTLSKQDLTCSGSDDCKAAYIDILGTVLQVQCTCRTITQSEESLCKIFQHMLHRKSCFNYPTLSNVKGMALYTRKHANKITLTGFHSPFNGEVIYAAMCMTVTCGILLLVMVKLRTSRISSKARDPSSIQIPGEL

[3] = molecular target: Cynomolgus monkey GFRAL-His protein (cynomolgus monkey); test: ELISA, antigen coated on plate, purified antibody titrated, HRP anti-mouse IgG detection
Experimental: (§1) The ELISA assay had the following protocols. Human GFRAL-His protein, cynomolgus monkey GFRAL-His protein, or mouse GFRAL-Fc protein were coated on 96-well plates, and after blocking the wells with PBS/1% BSA solution, the hybridoma supernatant or purified antibodies were added to the reaction wells. After incubation for 1 hour at room temperature, HRP-labeled anti-mouse IgG (Fab region) antibody was added to the reaction wells to incubate for an additional hour at room temperature. After the substrate and stop solution were added successively, the OD₄₅₀ values were read. The OD₄₅₀ values were used to verify and assess the binding ability of the antibodies to the GFRAL proteins.

Mouse GFRAL-Fc protein = molecular target: T3, Mouse GFRAL-Fc protein (mouse, UniProt Q6SJE0 20-349, limits assumed); test: as above
T3 construct: not shown: Fc
T3 sequence (looked up): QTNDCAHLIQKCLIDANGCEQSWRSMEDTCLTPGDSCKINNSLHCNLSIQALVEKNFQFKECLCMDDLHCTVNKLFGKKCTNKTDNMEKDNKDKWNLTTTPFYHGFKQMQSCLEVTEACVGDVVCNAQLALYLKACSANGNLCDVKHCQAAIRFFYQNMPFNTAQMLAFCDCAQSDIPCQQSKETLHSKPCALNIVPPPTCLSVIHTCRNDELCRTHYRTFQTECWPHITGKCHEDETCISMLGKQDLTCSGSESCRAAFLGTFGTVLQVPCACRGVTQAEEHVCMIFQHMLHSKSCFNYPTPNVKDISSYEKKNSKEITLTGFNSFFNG
Experimental: as §1

Human GFRAL-His protein = molecular target: T4, Human GFRAL-His protein (human, UniProt Q6UXV0 19-351); test: as above
T4 construct: also called human GFRAL-His fusion protein; not shown: His tag
T4 sequence (looked up): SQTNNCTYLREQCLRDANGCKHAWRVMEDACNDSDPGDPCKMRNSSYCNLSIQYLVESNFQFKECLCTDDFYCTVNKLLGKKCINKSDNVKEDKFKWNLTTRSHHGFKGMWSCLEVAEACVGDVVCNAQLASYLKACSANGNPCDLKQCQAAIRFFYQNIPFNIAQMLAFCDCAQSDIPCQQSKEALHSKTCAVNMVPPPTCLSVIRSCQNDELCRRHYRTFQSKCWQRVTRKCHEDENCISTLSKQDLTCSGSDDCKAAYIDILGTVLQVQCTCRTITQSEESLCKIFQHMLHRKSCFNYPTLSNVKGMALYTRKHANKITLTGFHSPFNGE
Experimental: as §1

[4] = molecular target: T5, Mouse GFRAL protein (Biacore analyte) (mouse, UniProt Q6SJE0 20-349, limits assumed); test: Biacore SPR, antibody captured via anti-human Fc on CM5, GFRAL injected, 25 C
T5 construct: also called mGFRAL
T5 sequence (looked up): T3 sequence (looked up)
Experimental: (§2) Binding affinity assays were performed for three antibody strains 168A7, 8E10 and 26D7 based on the Biacore affinity assay. The binding affinities of purified antibodies to human or mouse GFRAL were assessed by measuring the equilibrium dissociation constants (KD). The anti-human Fc antibody was immobilized in the flow cell of the CM5 chip according to the instructions of the amino-coupled kit (catalogue number: BR100050, Cytiva). Purified antibodies (˜300 RU) were captured on flow cells 2, 3 and 4 using flow cell 1 as a reference. Human or mouse GFRAL protein (in an HBS-EP buffer) was then injected at a flow rate of 30 μL/min and the binding kinetics were evaluated at 25° C. The results were as follows (FIGS. 1A-1C, Table 4)

[5] = molecular target: T6, Human GFRAL protein (Biacore analyte) (human, UniProt Q6UXV0 19-351, limits assumed); test: as above
T6 construct: also called hGFRAL
T6 sequence (looked up): T4 sequence (looked up)
Experimental: as §2

IC50 (nM), luciferase reporter gene assay, Mouse GFRAL/mouse RET [1]: 0.76 nM
IC50 (nM), luciferase reporter gene assay, Human GFRAL/human RET [2]: 6.35 nM
EC50 [3]: 60 pM
EC50 (Mouse GFRAL-Fc protein): 150 pM
EC50 (Human GFRAL-His protein): 70 pM
koff [4]: 0.000293 s⁻¹
Kd [5]: 15.3 pM
koff [5]: 9.37e-05 s⁻¹
B1: 26D7 (antibody, V domains shown)
VH: QIQLVQSGPELKKPGETVKISCKVSGYTFTDYGMNWVKQTPGKDLKWVGWINTYTGEPTYADDFKDRFAFSLEASASTAYLQINNLKNEDTATYFCARRYGYDAGIDCWGQGTTLTVSS
VL: NIVLTQSPPSLAVSLGQRATISCRASESVDSYGNNLMHWYQQKPGQPPKLLIYLASYLESGVPARFSGSGSRTDFTLTIDPVEADDAATYYCQQNNEDPWTFGGGTKLEIK
notes: Murine hybridoma antibody, purified; also called m26D7; M26D7

Reference: patent US20240368286A1 (SHANGHAI JMT BIO TECHNOLOGY, published 2024)
